System: Fusarium graminearum
Format: in vivo
Settings: corn leaves, 100 nM

B1: His-MP7: heptapeptide fusion protein, SEQ ID NO: 15: elf18, csp22, flg22, flgII-28, nlp20, pep1, pip1 in sequence, linkers GAG and AGA, HIS tag (protein)
chain: MGSSHHHHHHSSGLVPRGSHMASMTGGQQMGRDPNSSSVDKLSKEKFERTKPHVNVGTIGGAGAVGTVKWFNAEKGFGFITPDDGAGAQRLSTGSRINSAKDDAAGLQIAGAGESTNILQRMRELAVQSRNDSNSATDREAGAGAIMYSWYFPKDSPVTGLGHRAGAATKVKAKQRGKEKVSSGRPGQHNAGARLASGPSPRGRGH
modifications: his-MP7
3-4 days, untreated 12.3%
  scab area percentage: 3.6%
Versus untreated
  infection rate of Fusarium graminearum lowered by: 70.8%

Source: patent publication US20230036503A1, “Fusion Protein, Amino Acid Sequence Thereof, Coding Nucleotide Sequence Thereof, Preparation Method Thereof and Use Thereof” (priority 2019, published 2023)
